Bridges are numbered along the chain shown (N, C = ends).
Tests used:
[1] = molecular target: T1, extracellular domain of activin receptor type IIB (ActRIIBecd), biotinylated (Homo sapiens (Human), UniProt Q13705 27-117, amino-biotinylated with amine-PEG3-Biotin); test: Mean KD column of Table 5; method not restated (BIAcore as Example 5)
T1 construct: immobilised on a streptavidin-coated sensor chip; also called biotinylated ActRIIBecd; extracellular domain of ActRIIB
T1 sequence: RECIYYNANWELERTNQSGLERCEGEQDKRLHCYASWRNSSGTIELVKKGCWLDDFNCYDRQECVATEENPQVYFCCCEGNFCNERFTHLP
Description: (§1) Biosensor experiments. In one embodiment, experiments were performed on a BIAcore™ T100/T200 instrument (Pharmacia Biosensor AB) in the multichannel mode (serial flow path involving flow cells 1+2+3+4). Flow rate was 10 μl/min; temperature was 25° C.; and data were recorded at 2.5 points/s. All four segments of a sensor chip CMS were coated with streptavidin (Sigma) to a density of 2000 pg/mm² (2000 resonance units) by the aminocoupling procedure. ActRIIBecd (10 mg) and amine-PEG3-Biotin (10 mg, Pierce, Rockford, Ill.) were dissolved in 200 μl H₂O and 10 mg NaCNBH₃ was added to prepare biotinylated ActRIIBecd. The reaction mixture was heated at 70° C. for 24 h, after that a further 10 mg NaCNBH₃ was added and the reaction was heated at 70° C. for another 24 h. After cooling to room temperature, the mixture was desalted with the spin column (3,000 molecular weight cut off (MWCO)). Biotinylated ActRIIBecd was collected, freeze-dried and used for streptavidin (SA) chip preparation. Amino-biotinylated ActRIIBecd was then immobilized independently on flow cells 2-4 for 10 minutes at a flow rate of 5 μL/min and a concentration of 20 μM in 10 mM sodium acetate, pH 4.0, at a density of 50-250 resonance units (RU). The stored polypeptides were dissolved in glycine buffer (2.5 g of glycine, 0.5 g of sucrose, 370 mg of L-glutamate, 10 mg of sodium chloride, and 10 mg of Tween 80 in 100 mL water, pH 4.5) to prepare 10 mg/mL solution and then diluted with previous glycine buffer to prepare analytes with various concentration. Sensograms were recorded during flow of the analyte (the ActRIIBecd-associated polypeptides (i.e., domains) as previously described) first through flow cell 1 (control) then through flow cell 2 (biotinylated ActRIIBecd). The sensogram obtained for flow cell 1 was subtracted from the sensogram obtained for flow cell 2. The sensograms obtained at 1.11, 3.33, 10, 30, and 90 nM analyte were evaluated for equilibrium binding, association rate, and dissociation rate by using the programs supplied with the instrument (BIA evaluation 2.1; Software Handbook. 1995; Pharmacia Biosensor AB).

[2] = molecular target: T1, extracellular domain of activin …; test: BIAcore SPR as Example 5 (method not restated); SD ±1.55 nM
Description: as §1, with “The sensogram obtained for flow cell 1 was subtracted from the sensogram obtained for flow cell 2.” left out

[3] = molecular target: T1, extracellular domain of activin …; test: Mean KD column of Table 5; method not restated (BIAcore as Example 5); species also listed in Table 4
Description: as §1

[4] = molecular target: T1, extracellular domain of activin …; test: BIAcore SPR as Example 5 (method not restated); SD ±2.15 nM
Description: as §1, with “Biotinylated ActRIIBecd was collected, freeze-dried and used for streptavidin (SA) chip preparation. Amino-biotinylated ActRIIBecd was then immobilized independently on flow cells 2-4 for 10 minutes at a flow rate of 5 μL/min and a concentration of 20 μM in 10 mM sodium acetate, pH 4.0, at a density of 50-250 resonance units (RU). The stored polypeptides were dissolved in glycine buffer (2.5 g of glycine, 0.5 g of sucrose, 370 mg of L-glutamate, 10 mg of sodium chloride, and 10 mg of Tween 80 in 100 mL water, pH 4.5) to prepare 10 mg/mL solution and then diluted with previous glycine buffer to prepare analytes with various concentration.” left out, “The sensogram obtained for flow cell 1 was subtracted from the sensogram obtained for flow cell 2.” left out

[5] = molecular target: T1, extracellular domain of activin …; test: BIAcore SPR as Example 5 (method not restated); SD ±1.63 nM
Description: as §1, with “Biotinylated ActRIIBecd was collected, freeze-dried and used for streptavidin (SA) chip preparation. Amino-biotinylated ActRIIBecd was then immobilized independently on flow cells 2-4 for 10 minutes at a flow rate of 5 μL/min and a concentration of 20 μM in 10 mM sodium acetate, pH 4.0, at a density of 50-250 resonance units (RU). The stored polypeptides were dissolved in glycine buffer (2.5 g of glycine, 0.5 g of sucrose, 370 mg of L-glutamate, 10 mg of sodium chloride, and 10 mg of Tween 80 in 100 mL water, pH 4.5) to prepare 10 mg/mL solution and then diluted with previous glycine buffer to prepare analytes with various concentration.” left out, “The sensogram obtained for flow cell 1 was subtracted from the sensogram obtained for flow cell 2.” left out

B1: SEQ ID NO: 292, cysteine pairs C44-C48^a (designed binder)
chain: GQAKRKGYKRLKSSCKRHPLYVDFKDVGWNDHAVAPPGYHAFYCHGECPFPLADHLNSDNHAIVQTKVNSVNSKDPKACCVPTELSAPSPLYLDENEKPVLKNYQDMVVHGCGCR
modifications: disulfides C44-C48 (intra)
Kd [1]: 7.81 nM

B2: SEQ ID NO: 348, cysteine pairs C88-C92^a (designed binder)
chain: GQAKRKGYKRLKSSCKRHPLYNSKIPKACCVPTELSAISMLYLDENEKVVLKNYQDMVVEGCGCRVDFSDVGWNDWIVAPPGYHAFYCHGECPFPLADHLNSTNHAIVQTLVNSV
modifications: disulfides C88-C92 (intra)
Kd [1]: 4.51 nM

B3: SEQ ID NO: 308, cysteine pairs C59-C59^b, C8-C41^b, C9-C43^b, C88-C92^a (designed binder)
chain: NSKDPKACCVPTELSAPSPLYLDENEKPVLKNYQDMVVHGCGCRGQAKRKGYKRLKSSCKRHPLYVDFKDVGWNDHAVAPPGYHAFYCHGECPFPLADHLNSDNHAIVQTKVNSV
modifications: disulfides C59-C59 (inter), C8-C41 (inter), C9-C43 (inter), C88-C92 (intra)
notes: homodimer by intermolecular disulfide
Kd [2]: 6.73 nM
Kd [3]: 6.73 nM

B4: SEQ ID NO: 308, cysteine pairs C8-C43^a, C9-C41^a, C88-C92^a (designed binder)
chain: NSKDPKACCVPTELSAPSPLYLDENEKPVLKNYQDMVVHGCGCRGQAKRKGYKRLKSSCKRHPLYVDFKDVGWNDHAVAPPGYHAFYCHGECPFPLADHLNSDNHAIVQTKVNSV
modifications: disulfides C8-C43 (intra), C9-C41 (intra), C88-C92 (intra)
Kd [1]: 10.9 nM

B5: SEQ ID NO: 308, cysteine pairs C88-C92^a (designed binder)
chain: NSKDPKACCVPTELSAPSPLYLDENEKPVLKNYQDMVVHGCGCRGQAKRKGYKRLKSSCKRHPLYVDFKDVGWNDHAVAPPGYHAFYCHGECPFPLADHLNSDNHAIVQTKVNSV
modifications: disulfides C88-C92 (intra)
Kd [1]: 7.8 nM

B6: SEQ ID NO: 268, cysteine pairs C23-C27^a (designed binder)
chain: VDFSDVGWNDWIVAPPGYHAFYCHGECPFPLADHLNSTNHAIVQTLVNSVAQAKHKQRKRLKSSCKRHPLYNSKIPKACCVPTELSAISMLYLDENEKVVLKNYQDMVVEGCGCR
modifications: disulfides C23-C27 (intra)
Kd [1]: 8.41 nM

B7: SEQ ID NO: 316, cysteine pairs C67-C71^a (designed binder)
chain: NSKDPKACCVPTELSAPSPLYLDENEKPVLKNYQDMVVHGCGCRVDFKDVGWNDHAVAPPGYHAFYCHGECPFPLADHLNSDNHAIVQTKVNSVGQAKRKGYKRLKSSCKRHPLY
modifications: disulfides C67-C71 (intra)
Kd [1]: 4.67 nM

B8: SEQ ID NO: 340, cysteine pairs C15-C15^b, C29-C64^b, C30-C62^b, C88-C92^a (designed binder)
chain: AQAKHKQRKRLKSSCKRHPLYNSKDPKACCVPTELSAPSPLYLDENEKPVLKNYQDMVVHGCGCRVDFKDVGWNDHAVAPPGYHAFYCHGECPFPLADHLNSDNHAIVQTKVNSV
modifications: disulfides C15-C15 (inter), C29-C64 (inter), C30-C62 (inter), C88-C92 (intra)
notes: as for B3
Kd [2]: 6.37 nM
Kd [3]: 6.37 nM

B9: SEQ ID NO: 340, cysteine pairs C88-C92^a (designed binder)
chain: AQAKHKQRKRLKSSCKRHPLYNSKDPKACCVPTELSAPSPLYLDENEKPVLKNYQDMVVHGCGCRVDFKDVGWNDHAVAPPGYHAFYCHGECPFPLADHLNSDNHAIVQTKVNSV
modifications: disulfides C88-C92 (intra)
Kd [1]: 5.64 nM

B10: SEQ ID NO: 206, cysteine pairs C67-C71^a, C8-C43^b, C9-C41^b (designed binder)
chain: NSKIPKACCVPTELSAISMLYLDENEKVVLKNYQDMVVEGCGCRVDFSDVGWNDWIVAPPGYHAFYCHGECPFPLADHLNSTNHAIVQTLVNSV
modifications: disulfides C67-C71 (intra), C8-C43 (inter), C9-C41 (inter)
notes: as for B3
Kd [3]: 17 nM
Kd [4]: 17 nM

B11: SEQ ID NO: 242, cysteine pairs C15-C15^b, C29-C64^a, C30-C62^a (designed binder)
chain: GQAKRKGYKRLKSSCKRHPLYNSKDPKACCVPTELSAPSPLYLDENEKPVLKNYQDMVVHGCGCR
modifications: disulfide 29-64, 30-62; also: homodimer via intermolecular C15-C15 disulfide
notes: as for B3
Kd [5]: 18.1 nM
Kd [3]: 18.1 nM

B12: SEQ ID NO: 276, cysteine pairs C67-C71^a (designed binder)
chain: NSKIPKACCVPTELSAISMLYLDENEKVVLKNYQDMVVEGCGCRVDFSDVGWNDWIVAPPGYHAFYCHGECPFPLADHLNSTNHAIVQTLVNSVAQAKHKQRKRLKSSCKRHPLY
modifications: disulfides C67-C71 (intra)
Kd [1]: 7.41 nM

B13: SEQ ID NO: 300, cysteine pairs C23-C27^a (designed binder)
chain: VDFKDVGWNDHAVAPPGYHAFYCHGECPFPLADHLNSDNHAIVQTKVNSVGQAKRKGYKRLKSSCKRHPLYNSKDPKACCVPTELSAPSPLYLDENEKPVLKNYQDMVVHGCGCR
modifications: disulfides C23-C27 (intra)
Kd [1]: 8.92 nM
